Our source for the binding result and Kd values is publication PMC3303844, “C-Terminal Extension of the Yeast Mitochondrial DNA Polymerase Determines the Balance between Synthesis and Degradation”.

Common to all, as to conditions: protein: recombinant; tags: N-terminal 6xHis; label: 32P at 5' end of D25 primer; 25 bp duplex, 5' overhang 20 nt on D45 (recessed primer 3' end)
One series concerns the target T1, Mip1Δ279 (Saccharomyces cerevisiae, UniProt P15801 30-975, del976-1254).
T1 sequence: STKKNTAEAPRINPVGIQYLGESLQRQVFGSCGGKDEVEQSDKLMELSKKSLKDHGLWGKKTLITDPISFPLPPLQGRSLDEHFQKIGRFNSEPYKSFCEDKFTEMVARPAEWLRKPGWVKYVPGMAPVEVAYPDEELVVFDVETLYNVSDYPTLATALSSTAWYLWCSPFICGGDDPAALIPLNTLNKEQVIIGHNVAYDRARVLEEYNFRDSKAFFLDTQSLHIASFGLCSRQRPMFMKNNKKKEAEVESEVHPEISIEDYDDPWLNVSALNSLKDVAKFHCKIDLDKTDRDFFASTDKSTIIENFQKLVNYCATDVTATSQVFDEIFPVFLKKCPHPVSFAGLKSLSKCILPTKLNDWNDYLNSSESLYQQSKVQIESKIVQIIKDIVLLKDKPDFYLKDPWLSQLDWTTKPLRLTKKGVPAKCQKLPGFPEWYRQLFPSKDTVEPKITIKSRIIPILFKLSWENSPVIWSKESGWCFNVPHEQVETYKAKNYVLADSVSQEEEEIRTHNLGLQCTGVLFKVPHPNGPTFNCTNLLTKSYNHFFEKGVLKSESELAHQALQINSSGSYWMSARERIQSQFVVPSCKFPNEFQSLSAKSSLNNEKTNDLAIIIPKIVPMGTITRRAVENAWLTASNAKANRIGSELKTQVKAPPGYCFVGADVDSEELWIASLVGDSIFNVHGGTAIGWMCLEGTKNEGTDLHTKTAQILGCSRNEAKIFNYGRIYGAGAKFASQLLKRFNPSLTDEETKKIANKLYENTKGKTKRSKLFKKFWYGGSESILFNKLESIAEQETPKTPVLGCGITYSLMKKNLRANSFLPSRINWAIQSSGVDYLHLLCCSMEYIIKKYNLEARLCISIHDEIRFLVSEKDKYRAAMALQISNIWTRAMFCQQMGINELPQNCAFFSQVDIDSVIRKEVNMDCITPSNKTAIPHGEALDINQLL
Put plainly: EMSA; faint shifted band, complex possibly retained in well (aggregation); not quantified; EMSA: 1 nM substrate, 0.2-12.5 nM polymerase, 20 mM Tris-HCl pH 8.0, 40 mM KCl, 10% glycerol, 0.1 mg/ml BSA, 2 mM DTT, 2 min at 0°C; native 8% Tris-glycine gel. For orientation: A gel shift assay detects complexes by their altered migration in electrophoresis.

The target in series [1] is T2, FL-Mip1 (mitochondrial DNA polymerase gamma) (Saccharomyces cerevisiae, UniProt P15801 30-1254).
T2 sequence: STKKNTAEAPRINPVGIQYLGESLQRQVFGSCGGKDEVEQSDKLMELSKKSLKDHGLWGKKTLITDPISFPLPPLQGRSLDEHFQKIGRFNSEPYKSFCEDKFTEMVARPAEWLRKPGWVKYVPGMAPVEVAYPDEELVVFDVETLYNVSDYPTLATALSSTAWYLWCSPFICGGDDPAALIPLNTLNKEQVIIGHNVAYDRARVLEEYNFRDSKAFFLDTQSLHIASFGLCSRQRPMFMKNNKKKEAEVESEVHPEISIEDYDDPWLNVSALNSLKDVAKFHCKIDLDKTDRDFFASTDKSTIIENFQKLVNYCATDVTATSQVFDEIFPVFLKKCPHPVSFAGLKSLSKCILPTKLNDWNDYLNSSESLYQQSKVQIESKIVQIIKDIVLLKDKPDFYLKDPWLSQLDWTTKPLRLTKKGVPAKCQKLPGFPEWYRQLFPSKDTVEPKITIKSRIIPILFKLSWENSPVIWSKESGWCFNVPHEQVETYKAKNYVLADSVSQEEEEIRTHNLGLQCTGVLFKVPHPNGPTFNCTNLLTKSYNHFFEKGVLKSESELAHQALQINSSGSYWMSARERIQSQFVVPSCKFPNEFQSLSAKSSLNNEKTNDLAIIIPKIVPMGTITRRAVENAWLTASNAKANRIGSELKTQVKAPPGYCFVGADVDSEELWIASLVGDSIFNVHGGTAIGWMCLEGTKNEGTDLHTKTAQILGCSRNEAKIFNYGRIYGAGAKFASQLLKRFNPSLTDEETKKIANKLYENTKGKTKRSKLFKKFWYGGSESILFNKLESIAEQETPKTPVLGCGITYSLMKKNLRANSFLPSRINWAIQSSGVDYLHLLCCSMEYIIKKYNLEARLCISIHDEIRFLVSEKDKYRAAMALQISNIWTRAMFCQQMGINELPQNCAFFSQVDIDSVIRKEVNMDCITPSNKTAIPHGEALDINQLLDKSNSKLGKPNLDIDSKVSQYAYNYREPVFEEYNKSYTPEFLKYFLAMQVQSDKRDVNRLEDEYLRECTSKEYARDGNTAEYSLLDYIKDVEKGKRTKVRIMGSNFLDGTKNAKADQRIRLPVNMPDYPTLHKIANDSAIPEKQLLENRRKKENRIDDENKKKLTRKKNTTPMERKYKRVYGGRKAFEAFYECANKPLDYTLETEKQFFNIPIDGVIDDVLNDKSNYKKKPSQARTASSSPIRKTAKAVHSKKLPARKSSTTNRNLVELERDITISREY
Briefly: EMSA; no Mg2+ or dNTP in binding mix; EMSA: 1 nM substrate, 0.2-12.5 nM polymerase, 20 mM Tris-HCl pH 8.0, 40 mM KCl, 10% glycerol, 0.1 mg/ml BSA, 2 mM DTT, 2 min at 0°C; native 8% Tris-glycine gel.

A further series deals with T3, Mip1Δ175 (Saccharomyces cerevisiae, UniProt P15801 30-1079, del1080-1254).
T3 sequence: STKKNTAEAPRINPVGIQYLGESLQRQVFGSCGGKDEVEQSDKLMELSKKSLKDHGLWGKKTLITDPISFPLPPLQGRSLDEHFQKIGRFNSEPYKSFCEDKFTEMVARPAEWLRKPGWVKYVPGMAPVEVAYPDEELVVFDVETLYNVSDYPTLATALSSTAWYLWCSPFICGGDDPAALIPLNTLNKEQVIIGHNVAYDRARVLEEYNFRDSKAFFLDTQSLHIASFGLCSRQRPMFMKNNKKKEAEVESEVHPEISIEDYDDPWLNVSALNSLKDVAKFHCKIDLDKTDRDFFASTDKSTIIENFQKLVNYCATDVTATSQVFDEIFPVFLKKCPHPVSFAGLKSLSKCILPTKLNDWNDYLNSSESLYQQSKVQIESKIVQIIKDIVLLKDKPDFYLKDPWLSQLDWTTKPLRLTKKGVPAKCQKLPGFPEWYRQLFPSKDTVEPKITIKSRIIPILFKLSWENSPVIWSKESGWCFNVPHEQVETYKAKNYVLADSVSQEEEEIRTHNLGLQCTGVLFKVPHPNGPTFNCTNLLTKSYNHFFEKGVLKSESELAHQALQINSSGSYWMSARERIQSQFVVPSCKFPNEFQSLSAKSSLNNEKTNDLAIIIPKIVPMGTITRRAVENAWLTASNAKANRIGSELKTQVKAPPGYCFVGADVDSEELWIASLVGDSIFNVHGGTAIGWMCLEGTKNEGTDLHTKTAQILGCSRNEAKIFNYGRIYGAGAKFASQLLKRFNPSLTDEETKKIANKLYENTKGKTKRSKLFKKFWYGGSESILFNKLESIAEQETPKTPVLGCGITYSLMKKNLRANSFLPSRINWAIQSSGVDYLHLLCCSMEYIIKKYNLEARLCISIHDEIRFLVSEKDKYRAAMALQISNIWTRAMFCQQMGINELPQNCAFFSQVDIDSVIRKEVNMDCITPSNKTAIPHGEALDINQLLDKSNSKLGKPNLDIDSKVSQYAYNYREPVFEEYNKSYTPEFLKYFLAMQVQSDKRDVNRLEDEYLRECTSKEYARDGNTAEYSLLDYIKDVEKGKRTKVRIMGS
The description is as above.

The target of a further series is T4, Mip1Δ216 (Saccharomyces cerevisiae, UniProt P15801 30-1038, del1039-1254).
T4 sequence: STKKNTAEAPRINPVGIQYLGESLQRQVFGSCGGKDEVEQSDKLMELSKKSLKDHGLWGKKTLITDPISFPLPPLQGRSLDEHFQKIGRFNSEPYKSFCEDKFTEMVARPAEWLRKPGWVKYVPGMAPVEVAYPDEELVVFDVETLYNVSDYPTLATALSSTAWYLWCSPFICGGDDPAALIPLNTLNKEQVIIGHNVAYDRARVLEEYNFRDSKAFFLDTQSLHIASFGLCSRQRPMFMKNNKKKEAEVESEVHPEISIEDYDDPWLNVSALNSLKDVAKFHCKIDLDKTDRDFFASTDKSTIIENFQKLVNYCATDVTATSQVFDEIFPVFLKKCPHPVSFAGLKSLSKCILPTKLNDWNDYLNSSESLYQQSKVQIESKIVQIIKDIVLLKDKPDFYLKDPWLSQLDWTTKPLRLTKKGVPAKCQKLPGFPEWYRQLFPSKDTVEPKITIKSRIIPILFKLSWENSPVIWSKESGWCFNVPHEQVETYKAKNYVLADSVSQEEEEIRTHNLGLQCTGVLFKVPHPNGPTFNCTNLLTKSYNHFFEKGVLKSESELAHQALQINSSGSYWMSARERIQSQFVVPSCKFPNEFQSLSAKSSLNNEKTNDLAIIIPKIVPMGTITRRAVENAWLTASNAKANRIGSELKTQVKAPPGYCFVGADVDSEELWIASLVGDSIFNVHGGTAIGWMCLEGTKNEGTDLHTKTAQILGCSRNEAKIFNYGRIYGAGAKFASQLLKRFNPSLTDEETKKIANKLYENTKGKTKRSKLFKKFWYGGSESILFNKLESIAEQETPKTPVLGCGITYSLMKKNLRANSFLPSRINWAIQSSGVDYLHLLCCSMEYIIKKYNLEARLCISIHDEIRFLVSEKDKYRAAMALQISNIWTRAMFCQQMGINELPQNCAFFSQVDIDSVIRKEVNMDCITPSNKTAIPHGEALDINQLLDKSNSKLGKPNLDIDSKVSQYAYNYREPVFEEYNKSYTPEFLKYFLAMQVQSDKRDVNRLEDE
The series is described as above.

B1: 45/25 primer-template (D45/D25) (dsDNA)
DNA 1: GGACGGCATTGGATCGAGGTTGAGTTGGTTGGACGGCTGCGAGGC
DNA 2: GCCTCGCAGCCGTCCAACCAACTCA
Turning to B1, the binding result in the series with Mip1Δ279 is given as “binds”. Besides, the Kd (in general, the concentration at which binding is half-saturated) in series [1] came to 4.3 ± 0.68 nM; in the series with Mip1Δ175 it was 2.2 ± 0.75 nM; with Mip1Δ216, 0.95 ± 0.18 nM.
